# Measured values taken from patent publication US20170267776A1 (published 2017).
# T1: recombinant human RSPO3 protein, biotinylated (captured on streptavidin-coated chips) (human, UniProt Q9BXY4 22-272, limits assumed, biotinylated (sites not given))
# T1 sequence: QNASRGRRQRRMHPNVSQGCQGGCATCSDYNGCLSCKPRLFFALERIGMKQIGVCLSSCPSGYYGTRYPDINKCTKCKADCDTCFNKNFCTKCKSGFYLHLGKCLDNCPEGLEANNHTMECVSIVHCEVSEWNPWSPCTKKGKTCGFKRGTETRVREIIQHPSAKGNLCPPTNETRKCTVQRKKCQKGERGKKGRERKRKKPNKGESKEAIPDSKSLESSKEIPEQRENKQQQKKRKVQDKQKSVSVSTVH
# T2: LGR5-Fc fusion protein (mature form containing amino acids 22-564 of human LGR5 fused to human Fc) (human, UniProt O75473 22-564)
# T2 construct: range 22-564; Expressed in insect cells (baculovirus) and purified by protein A; also called soluble LGR5-Fc; not shown: human Fc
# T2 sequence (looked up): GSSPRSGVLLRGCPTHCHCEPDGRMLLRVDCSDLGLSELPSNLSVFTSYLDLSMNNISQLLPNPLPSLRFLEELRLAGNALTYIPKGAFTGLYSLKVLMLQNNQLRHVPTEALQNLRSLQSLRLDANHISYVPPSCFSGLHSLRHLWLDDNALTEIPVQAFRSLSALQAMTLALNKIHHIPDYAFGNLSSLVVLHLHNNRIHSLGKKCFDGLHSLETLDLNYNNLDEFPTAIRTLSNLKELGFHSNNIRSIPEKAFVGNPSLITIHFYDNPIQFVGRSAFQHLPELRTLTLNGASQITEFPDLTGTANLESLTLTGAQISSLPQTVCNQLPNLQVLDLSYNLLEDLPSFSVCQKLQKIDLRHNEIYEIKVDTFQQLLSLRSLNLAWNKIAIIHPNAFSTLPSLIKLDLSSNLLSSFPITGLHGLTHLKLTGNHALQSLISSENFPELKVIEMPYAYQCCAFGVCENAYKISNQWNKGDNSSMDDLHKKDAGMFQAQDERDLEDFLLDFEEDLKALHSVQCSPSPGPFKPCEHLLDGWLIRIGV
# Legend:
# [1] = biological target: T1, recombinant human RSPO3 protein, …; test: summary of Example 3 (SPR, Biacore 2000)
# Experimental: The antibodies were serially diluted 2-fold from 100 nM to 0.78 nM in HBS-P (0.01M HEPES pH 7.4, 0.15M NaCl, 0.005% v/v Surfactant P20) and were injected over the chip surface. Kinetic data were collected over time and were fit using the simultaneous global fit equation to yield affinity constants (KD values) for each antibody.
# [2] = biological target: T2, LGR5-Fc fusion protein (mature form …); test: SPR (Biacore 2000): RSPO-Fc immobilised on CM5 chip, soluble LGR5-Fc injected 100 nM to 0.78 nM
# Experimental: Binding affinities between RSPO proteins and LGR5 were analyzed by surface plasmon resonance. A soluble LGR5-Fc construct was generated using standard recombinant DNA techniques. Specifically, amino acids 1-564 of human LGR5 were ligated in frame to human Fc and the recombinant LGR5-Fc fusion protein was expressed in insect cells using baculovirus. The LGR5-Fc fusion protein was purified from the insect medium using protein A chromatography. Cleavage of the LGR5 signal sequence results in a mature LGR5-Fc fusion protein containing amino acids 22-564 of LGR5. […] Two-fold dilutions of soluble LGR5-Fc were injected over the chip surface (100 nM to 0.78 nM). Kinetic data were collected over time using a Biacore 2000 system from Biacore Life Sciences (GE Healthcare) and the data were fit using the simultaneous global fit equation to yield affinity constants (KD values) for each RSPO protein (Table 3).
Kd [1] [nM],Kd [2] [nM],Binder
< 10,,"anti-RSPO3 antibody 131R002 (IgG2) (antibody, V domains shown) VH: QVQLQESGPELVKPGASVKISCKASGYTFTDYSIHWVKQNHGKSLDWIGYIYPSNGDSGYNQKFKNRATLTVDTSSSTAYLEVRRLTFEDSAVYYCATYFANYFDYWGQGTTLTVSS VL: DIVLTQSPASLAVSLGQRATISCKASQSVDYDGDSYMNWYQQKPGQPPKLLIYAASNLESGIPARFSGSGSGTDFTLNIHPVEEEDAATYYCQQSNEDPLTFGAGTKLELKR"
< 10,,"anti-RSPO3 antibody 131R003 (IgG2) (antibody, V domains shown, also called parental 131R003) VH: QVQLKQSGPELVKPGASVKISCKASGYTFTDYSIHWVKQNHGKSLDWIGYIYPSNGDSGYNQKFKNRATLTVDTSYSTAYLEVRRLTFEDSAVYYCATYFANYFDYWGQGTTLTVSS VL: DIVLTQSPASLAVSLGQRATISCKASQSVDYDGDSYMNWYQQKPGQPPKLLIYAASNLESGIPARFSGSGSGTDFTLNIHPVEEEDAATYYCQQSNEDPLTFGAGTKLELKR"
,73,"RSPO4-Fc fusion protein (full-length human RSPO4 ligated in-frame to a human Fc region) (Fc fusion, UniProt Q2I0M5 20-234, looked up, not shown: human Fc region) LNRRKKQVGTGLGGNCTGCIICSEENGCSTCQQRLFLFIRREGIRQYGKCLHDCPPGYFGIRGQEVNRCKKCGATCESCFSQDFCIRCKRQFYLYKGKCLPTCPPGTLAHQNTRECQGECELGPWGGWSPCTHNGKTCGSAWGLESRVREAGRAGHEEAATCQVLSESRKCPIQRPCPGERSPGQKKGRKDRRPRKDRKLDRRLDVRPRQPGLQP"
